US20240036027A1

Experiments:
[1] = biological target: OmpG^Q224-FLAG (Escherichia coli) (UniProt P76045); assay: single-channel current recording, 30 nM antibody, 50 mV, 30 pA pores
[2] = biological target: OmpG^L3-FLAG (Escherichia coli) (UniProt P76045); assay: single-channel current recording, N=3 pores, n=9 binding events
[3] = biological target: OmpG^Q224-FLAG (Escherichia coli) (UniProt P76045); assay: single-channel current recording, 30 nM FG4R

Substance	reduction in current in the bound state [1] [pA]	reduction in pore conductance in the bound state [2] [%]	reduction of current flow in the bound state [3] [%]
FLAG tag monoclonal antibody OTI4C5 (OriGene Technologies)	20	–	–
Monoclonal mouse anti-FLAG antibody FG4R [RRID AB_1957945]	–	5.02	10
